Columns and labels:
Assay in all cases: BLI Octet 384RED, antibody on Protein A sensor, Sortilin construct in solution
[1] = target: T1, Sortilin SORTECDBAP_hB06-10 (human/tetraodon chimera)
T1 construct: Shuffle construct
T1 chain: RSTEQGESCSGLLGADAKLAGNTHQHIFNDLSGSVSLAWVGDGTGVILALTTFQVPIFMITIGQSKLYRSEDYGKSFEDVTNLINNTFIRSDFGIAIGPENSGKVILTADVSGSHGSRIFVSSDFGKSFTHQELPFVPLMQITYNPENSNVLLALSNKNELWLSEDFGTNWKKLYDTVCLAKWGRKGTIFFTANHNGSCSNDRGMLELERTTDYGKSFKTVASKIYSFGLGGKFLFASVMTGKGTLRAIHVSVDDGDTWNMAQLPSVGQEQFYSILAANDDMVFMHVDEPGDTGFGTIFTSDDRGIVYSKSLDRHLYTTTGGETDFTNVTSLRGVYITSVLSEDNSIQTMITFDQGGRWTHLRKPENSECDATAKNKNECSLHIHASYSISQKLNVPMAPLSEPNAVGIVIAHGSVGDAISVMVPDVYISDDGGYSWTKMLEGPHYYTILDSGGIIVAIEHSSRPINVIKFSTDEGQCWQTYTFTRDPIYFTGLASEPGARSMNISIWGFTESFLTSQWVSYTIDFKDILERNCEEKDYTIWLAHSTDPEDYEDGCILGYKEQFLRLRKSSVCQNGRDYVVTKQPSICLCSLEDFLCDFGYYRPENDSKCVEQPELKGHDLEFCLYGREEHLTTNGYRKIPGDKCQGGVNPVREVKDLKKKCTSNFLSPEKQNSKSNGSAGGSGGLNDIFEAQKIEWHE
Procedure: (§1) Binding kinetics of anti-Sortilin HuMab antibodies to Sortilin were determined using Octet 384RED (Fortebio, Menlo Park, USA). HuMab solutions of 2 μg/ml were made by dilution in sample diluent (ForteBio, art. No. 18-5028). Prot A sensors (ForteBio, art. no. 18-0004) were prewetted with kinetics buffer (1:10 sample diluent in PBS) for at least 600 seconds. Subsequently sensors were immobilized with HuMab solution for 600 seconds. A baseline response was obtained by dipping in kinetics buffer for 120 seconds. Association of SORTECD constructs was performed during a 1000 seconds incubation. This was followed by dissociation in kinetics buffer for 100 seconds. After dissociation, sensors were regenerated (10 mM Glycine pH 1.0) and neutralized (kinetics buffer) 3 times for 5 seconds. […] A molecular weight of 76.8 kDA was used for SORTECDHis. Data was fitted with ForteBio Analysis 6.4 software, using a global full fit.

[2] = target: T2, Sortilin SORTECDBAP_tetra (tetraodon)
T2 construct: Fully tetraodon Sortilin ECD with BAP tag; also called tetraodon Sortilin
T2 chain: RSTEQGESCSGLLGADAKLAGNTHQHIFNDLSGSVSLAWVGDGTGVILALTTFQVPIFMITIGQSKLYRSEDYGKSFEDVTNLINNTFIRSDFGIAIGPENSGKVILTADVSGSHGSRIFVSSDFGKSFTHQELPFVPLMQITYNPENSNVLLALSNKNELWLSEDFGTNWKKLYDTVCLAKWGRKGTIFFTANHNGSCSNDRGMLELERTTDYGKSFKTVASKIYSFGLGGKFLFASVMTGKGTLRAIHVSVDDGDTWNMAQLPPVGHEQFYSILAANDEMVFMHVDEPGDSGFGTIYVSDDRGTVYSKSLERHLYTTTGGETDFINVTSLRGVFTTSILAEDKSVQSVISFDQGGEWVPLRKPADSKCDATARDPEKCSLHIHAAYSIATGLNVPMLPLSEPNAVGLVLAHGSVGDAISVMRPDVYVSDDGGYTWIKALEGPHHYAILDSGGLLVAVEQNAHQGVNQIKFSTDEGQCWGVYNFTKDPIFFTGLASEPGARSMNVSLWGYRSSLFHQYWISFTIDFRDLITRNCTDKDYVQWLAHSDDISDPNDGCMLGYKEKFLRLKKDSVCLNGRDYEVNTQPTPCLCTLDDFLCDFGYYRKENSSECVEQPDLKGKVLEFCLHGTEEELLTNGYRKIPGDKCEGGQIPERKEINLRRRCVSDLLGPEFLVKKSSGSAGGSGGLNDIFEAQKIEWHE
Procedure: as §1

[3] = target: T3, Sortilin SORTECDBAP_hB45678 (human/tetraodon chimera)
T3 construct: Shuffle construct
T3 chain: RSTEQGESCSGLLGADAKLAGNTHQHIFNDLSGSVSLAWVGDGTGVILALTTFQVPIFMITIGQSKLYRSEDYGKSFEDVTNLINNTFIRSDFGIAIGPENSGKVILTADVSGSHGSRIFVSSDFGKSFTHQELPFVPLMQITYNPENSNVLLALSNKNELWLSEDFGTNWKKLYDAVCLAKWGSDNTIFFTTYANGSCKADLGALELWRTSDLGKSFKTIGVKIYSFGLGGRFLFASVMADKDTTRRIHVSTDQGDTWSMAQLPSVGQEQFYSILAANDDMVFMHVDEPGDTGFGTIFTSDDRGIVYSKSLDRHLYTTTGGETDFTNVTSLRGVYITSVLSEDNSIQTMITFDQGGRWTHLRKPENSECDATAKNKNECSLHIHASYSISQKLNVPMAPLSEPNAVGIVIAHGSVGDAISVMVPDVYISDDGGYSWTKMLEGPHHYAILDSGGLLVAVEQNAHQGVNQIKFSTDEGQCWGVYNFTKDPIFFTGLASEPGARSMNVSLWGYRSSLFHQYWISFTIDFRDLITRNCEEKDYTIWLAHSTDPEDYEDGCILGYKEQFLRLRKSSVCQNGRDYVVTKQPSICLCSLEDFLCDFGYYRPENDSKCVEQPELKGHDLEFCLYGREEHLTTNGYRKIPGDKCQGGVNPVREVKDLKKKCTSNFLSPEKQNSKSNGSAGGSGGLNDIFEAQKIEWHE
Procedure: as §1

EC50 [1]: 0.0554 µg/mL
binding result [2]: no binding (tested: 10 µg/ml construct)
binding result [3]: no binding (tested: 10 µg/ml construct)
B1: 1320 (antibody, V domains shown)
VH: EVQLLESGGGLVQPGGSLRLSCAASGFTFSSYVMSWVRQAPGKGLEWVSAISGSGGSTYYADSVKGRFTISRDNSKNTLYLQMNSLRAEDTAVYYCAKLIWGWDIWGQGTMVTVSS
VL: EIVLTQSPATLSLSPGERATLSCRASQSVSSYLAWYQQRPGQAPRLLIYDASNRATGIPARFSGSGSGTDFTLSISSLEPEDFAVYYCQQRTNWSITFGQGTRLEIK
notes: also called IgG1-6003-1320; Antibody 1320

— patent US20230159643A1 (H LUNDBECK A S, published 2023)
